Patent publication US6858425

System: mannose 6-phosphate receptors on the cell surface of fibroblasts

## recombinant human acid α-glucosidase produced in the milk of transgenic mice
  restoration of acid α-glucosidase activity in GSD II patient fibroblasts after 20 hours with the enzyme: Under these conditions acid α-glucosidase of the patient fibroblasts was restored to the level measured in fibroblasts from healthy individuals
  restoration of acid α-glucosidase activity in GSD II patient fibroblasts, with 5 mM mannose 6-phosphate as a competitor: Restoration by α-glucosidase form milk was inhibited by 5 mM mannose 6-phosphate
